B1: Mortality factor 4-like protein 1 (Homo sapiens), Q9UBU8-2 (parent)
chain: MAPKQDPKPKFQEGERVLCFHGPLLYEAKCVKVAIKDKQVKYFIHYSGWNKNWDEWVPESRVLKYVDTNLQKQRELQKANQEQYAEGKMRGAAPGKKTSGLQQKNVEVKTKKNKQKTPGNGDGGSTSETPQPPRKKRARVDPTVENEETFMNRVEVKVKIPEELKPWLVDDWDLITRQKQLFYLPAKKNVDSILEDYANYKKSRGNTDNKEYAVNEVVAGIKEYFNVMLGTQLLYKFERPQYAEILADHPDAPMSQVYGAPHLLRLFVRIGAMLAYTPLDEKSLALLLNYLHDFLKYLAKNSATLFSASDYEVAPPEYHRKAV

Variants of: B1
Conditions: with mrgbp_human MRGBP

Variant | effect of a mutation on the interaction
L168A | decreasing interaction strength
W172A | decreasing interaction strength
L287A | decreasing interaction strength
